Target: T1, TGF-β receptor I-K coil fusion protein (kinase domain)
T1 chain: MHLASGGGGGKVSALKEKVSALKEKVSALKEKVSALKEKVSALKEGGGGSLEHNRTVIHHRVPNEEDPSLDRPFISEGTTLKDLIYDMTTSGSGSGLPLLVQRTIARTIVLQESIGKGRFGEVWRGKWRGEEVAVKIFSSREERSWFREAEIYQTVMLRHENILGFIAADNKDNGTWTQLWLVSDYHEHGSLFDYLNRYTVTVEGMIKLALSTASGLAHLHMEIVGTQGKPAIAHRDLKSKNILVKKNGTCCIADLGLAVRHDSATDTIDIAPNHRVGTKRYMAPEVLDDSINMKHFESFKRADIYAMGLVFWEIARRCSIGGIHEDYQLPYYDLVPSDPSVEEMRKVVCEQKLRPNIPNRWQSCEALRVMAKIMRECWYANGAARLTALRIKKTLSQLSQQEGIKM

B1: TGF-β receptor II-E coil fusion protein (kinase domain) (protein)
chain: MHLASGGGGGEVSALEKEVSALEKEVSALEKEVSALEKEVSALEKGGGGSLERVNRQQKLSSTWETGKTRKLMEFSEHCAIILEDDRSDISSTCANNINHNTELLPIELDTLVGKGRFAEVYKAKLKQNTSEQFETVAVKIFPYEEYASWKTEKDIFSDINLKHENILQFLTAEERKTELGKQYWLITAFHAKGNLQEYLTRHVISWEDLRKLGSSLARGIAHLHSDHTPCGRPKMPIVHRDLKSSNILVKNDLTCCLCDFGLSLRLDPTLSVDDLANSGQVGTARYMAPEVLESRMNLENAESFKQTDVYSMALVLWEMTSRCNAVGEVKDYEPPFGSKVREHPCVESMKDNVLRDRGRPEIPSFWLNHQGIQMVCETLTECWDHDPEARLTAQCVAERFSELEHLDRLSGRSCSEEKIPEDGSLNTTK
Question: For B1, which “autophosphorylation with P33-gamma ATP, SDS-PAGE and phosphorimaging” value is on record?
Answer: Lane 4 corresponding to the heterodimer shows the most autophosphorylation

Reference: patent US20070154994
